How the values were obtained:
human BCMA = molecular target: T1, human BCMA (human, UniProt Q02223 1-184); assay: flow cytometry, HEK293T membrane protein array
T1 construct: whole, on cells; also called B-cell maturation antigen; TNFRSF17
T1 sequence (looked up): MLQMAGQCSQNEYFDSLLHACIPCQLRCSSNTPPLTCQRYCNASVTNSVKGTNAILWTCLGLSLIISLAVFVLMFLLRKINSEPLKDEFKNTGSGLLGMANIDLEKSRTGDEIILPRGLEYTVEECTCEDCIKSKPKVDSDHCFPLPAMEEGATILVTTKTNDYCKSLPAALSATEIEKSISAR
From the text: (§1) In the membrane protein array, genetic engineering methods are used to construct the full-length cDNA sequences of human membrane proteins into expression vectors, which are then transiently transfected into HEK293T cells and arranged into an array by using microfluidic technology or chip printing technology. It is a high-throughput screening technology for studying the interaction between test substances and membrane proteins.
(§2) A chimeric rabbit monoclonal antibody, C-CAR168 scFv-RabFc, was generated by linking the anti-CD20 scFv (e.g., derived from the Ofatumumab mAb) and the anti-BCMA scFv (e.g., derived from the BCMA-20 mAb) in frame with a rabbit IgG Fc region. The chimeric antibody was added at a concentration of 20 μg/mL to the HEK293T cell array transiently transfected with 5220 membrane proteins. […] The average fluorescence intensity of its binding to CD20 and BCMA in flow cytometry was about 60-fold and 110-fold of that of the negative control group, respectively (FIG. 8B). […] This is mainly due to the binding between FCGR1A and the rabbit-derived Fc of the recombinant protein; so there is no relevant risk in clinical applications.

human CD20 = molecular target: T2, human CD20 (human, UniProt P11836 1-297); assay: flow cytometry, HEK293T membrane protein array
T2 construct: whole, on cells; also called B1; MS4A
T2 sequence (looked up): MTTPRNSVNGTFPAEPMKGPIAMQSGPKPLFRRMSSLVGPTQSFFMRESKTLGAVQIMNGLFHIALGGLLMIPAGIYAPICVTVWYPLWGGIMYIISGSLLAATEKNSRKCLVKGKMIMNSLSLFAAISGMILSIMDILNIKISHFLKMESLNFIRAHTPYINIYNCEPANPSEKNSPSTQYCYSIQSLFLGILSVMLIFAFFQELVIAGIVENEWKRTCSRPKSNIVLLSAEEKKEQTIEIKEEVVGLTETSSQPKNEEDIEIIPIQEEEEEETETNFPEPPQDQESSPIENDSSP
From the text: as §1, §2

F11R (human) = F11R (human) (UniProt Q9Y624); assay: flow cytometry, HEK293T membrane protein array, 20 µg/mL and 5 µg/mL
FCGR1A (human) = FCGR1A (human) (UniProt P12314); assay: flow cytometry, HEK293T membrane protein array
MPZ = molecular target: T3, MPZ (human, UniProt P25189 30-248); assay: flow cytometry, HEK293T membrane protein array, 20 µg/mL and 5 µg/mL
T3 construct: whole, on cells
T3 sequence (looked up): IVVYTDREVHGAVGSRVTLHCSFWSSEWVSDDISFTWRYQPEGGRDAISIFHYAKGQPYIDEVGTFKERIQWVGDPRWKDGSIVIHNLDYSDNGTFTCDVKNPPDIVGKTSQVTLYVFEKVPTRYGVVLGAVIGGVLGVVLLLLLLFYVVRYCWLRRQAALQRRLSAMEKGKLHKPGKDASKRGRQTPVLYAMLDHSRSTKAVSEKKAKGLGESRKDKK
From the text: as §1, §2

MC2R = molecular target: T4, MC2R (human, UniProt Q01718 1-297); assay: as above
T4 construct: whole, on cells
From the text: as §1, §2

CLEC2B = molecular target: T5, CLEC2B (human, UniProt Q92478 1-149); assay: as above
T5 construct: whole, on cells
T5 sequence (looked up): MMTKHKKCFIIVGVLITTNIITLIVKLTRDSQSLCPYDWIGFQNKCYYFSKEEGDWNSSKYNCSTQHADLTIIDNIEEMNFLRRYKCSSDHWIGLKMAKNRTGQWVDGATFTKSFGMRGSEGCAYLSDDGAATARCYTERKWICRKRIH
From the text: as §1, §2

T4 sequence (Q01718 whole entry): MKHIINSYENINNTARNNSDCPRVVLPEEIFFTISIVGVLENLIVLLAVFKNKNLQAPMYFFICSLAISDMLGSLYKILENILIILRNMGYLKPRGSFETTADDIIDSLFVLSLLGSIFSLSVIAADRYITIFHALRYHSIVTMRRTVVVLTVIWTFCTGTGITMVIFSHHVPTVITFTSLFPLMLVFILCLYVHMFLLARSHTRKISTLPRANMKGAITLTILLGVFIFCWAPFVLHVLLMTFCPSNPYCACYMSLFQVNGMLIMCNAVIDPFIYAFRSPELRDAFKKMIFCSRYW
FCGR1A (human), sequence (P12314 16-374): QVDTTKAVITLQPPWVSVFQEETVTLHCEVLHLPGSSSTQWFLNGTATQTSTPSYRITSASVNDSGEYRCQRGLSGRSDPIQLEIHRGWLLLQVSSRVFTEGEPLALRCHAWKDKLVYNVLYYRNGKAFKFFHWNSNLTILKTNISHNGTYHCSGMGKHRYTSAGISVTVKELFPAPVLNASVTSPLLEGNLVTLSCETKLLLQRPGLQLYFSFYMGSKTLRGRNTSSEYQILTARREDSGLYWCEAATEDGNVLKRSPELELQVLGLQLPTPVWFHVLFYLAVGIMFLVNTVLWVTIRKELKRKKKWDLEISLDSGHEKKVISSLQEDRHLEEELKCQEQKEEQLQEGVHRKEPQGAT
F11R (human), sequence (Q9Y624 28-299, stated change not applied): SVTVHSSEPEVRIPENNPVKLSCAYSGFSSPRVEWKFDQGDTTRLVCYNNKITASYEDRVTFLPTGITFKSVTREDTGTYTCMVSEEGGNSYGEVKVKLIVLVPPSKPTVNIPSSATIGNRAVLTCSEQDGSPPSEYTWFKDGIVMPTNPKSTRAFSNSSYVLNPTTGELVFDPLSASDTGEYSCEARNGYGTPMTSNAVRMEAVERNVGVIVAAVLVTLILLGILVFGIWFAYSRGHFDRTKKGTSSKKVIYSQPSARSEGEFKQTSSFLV

B1: C-CAR168 scFv-RabFc (Fc fusion)
chain: EIVLTQSPATLSLSPGERATLSCRASQSVSSYLAWYQQKPGQAPRLLIYDASNRATGIPARFSGSGSGTDFTLTISSLEPEDFAVYYCQQRSNWPITFGQGTRLEIKGSTSGGGSGGGSGGGGSSEVQLVESGGGLVQPGRSLRLSCAASGFTFNDYAMHWVRQAPGKGLEWVSTISWNSGSIGYADSVKGRFTISRDNAKKSLYLQMNSLRAEDTALYYCAKDIQYGNYYYGMDVWGQGTTVTVSSGGGGSDIQMTQSPSSLSASVGDRVTITCRASQGISNYLNWYQQKPGKAPKPLIYYTSNLQSGVPSRFSGSGSGTDYTLTISSLQPEDFATYYCMGQTISSYTFGQGTKLEIKGGGGSGGGGSGGGGSEVQLVESGGGLVQPGGSLRLSCAASGFTFSNFDMAWVRQAPGKGLVWVSSITTGADHAIYADSVKGRFTISRDNAKNTLYLQMNSLRAEDTAVYYCVRHGYYDGYHLFDYWGQGTLVTVSS
notes: also called chimeric rabbit monoclonal antibody; not shown: rabbit IgG Fc region
average fluorescence intensity, fold of the negative control group (human BCMA): ~110 fold | average fluorescence intensity, fold of the negative control group (human CD20): ~60 fold | average fluorescence intensity, fold of the negative control group (F11R (human)): < 2 fold | average fluorescence intensity, fold of the negative control group (FCGR1A (human)): 2.5 fold | average fluorescence intensity, fold of the negative control group (MPZ): ≤ 2 fold | average fluorescence intensity, fold of the negative control group (MC2R): ≤ 2 fold | average fluorescence intensity, fold of the negative control group (CLEC2B): ≤ 2 fold
